For 1 substance, stoichiometry N results are on record in article PMC10891854.

For this test, the target named is recombinant Pseudothermotoga hypogea iron-containing alcohol dehydrogenase (Pseudothermotoga hypogea). Kind of test: SEC; Superdex 200 (2.6 x 60 cm), 50 mM Tris-HCl pH 7.8, 100 mM KCl, 2 mL/min; native size worked out from the elution volume against standard proteins and compared with the subunit size by SDS-PAGE. In general terms: In gel filtration, larger molecules generally elute earlier.

Take “recombinant Pseudothermotoga hypogea iron-containing alcohol dehydrogenase (enzyme)”: the stoichiometry N (as a rule, the number of molecules, sites or subunits per partner or assembly) worked out at 2.
